± gives the uncertainty stated by the source.

The nature of the data set: amyloid nucleation score (Sup35N fusion, yeast selection) (log enrichment); library NNK2; higher = more nucleation; inactive = no reads after selection. A digest of the protocol: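 The nucleation score is the DiMSum log enrichment of output over input reads, centred on the mode score of non-aggregating sequences. Only sequences with 100 or more input reads were scored, using Illumina sequencing of input and output plasmid inserts. Psi-negative yeast expressing Sup35N fused to peptides of 20 random codons were induced 24 hours with 100 μM copper sulfate and grown 7 days at 30°C on medium lacking adenine and uracil.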
The substance NSSPTSFLLIMSLNCCICVN registered an amyloid nucleation score of 8.228 ± 0.024.

On to RSDCCRDQYT, for which the amyloid nucleation score was -0.311 ± 1.1.

As for KWIRDIRDLQTH, the amyloid nucleation score was -0.275 ± 0.65.

As to VSYEVVINRYFGKHCCGTII, the amyloid nucleation score entry was “inactive”.

Take SNLFGKLYVCFERDPRRKMM: the amyloid nucleation score came out at 3.32 ± 0.12.

In turn, MYVDLKLSYNHSPATLW showed an amyloid nucleation score of 5.22 ± 0.061.

LHIFSSWTRW: the amyloid nucleation score is -0.451 ± 0.76.

In the case of VALSSVFKEESCRVIRIMES, the amyloid nucleation score was -1.02 ± 0.32.

On to GSVRYWK, for which the amyloid nucleation score was -0.685 ± 0.36.

NIQPEK came in with an amyloid nucleation score of -0.587 ± 0.39.

Consider TSGFRKHNVQRRLECTPGDW, for which the amyloid nucleation score is 1.14 ± 0.31.

NWPETT returned an amyloid nucleation score of 2.48 ± 0.19.

As for KNILGGDSFWFLLYGYHLFI, the amyloid nucleation score entry is “inactive”.

SLSPIYDDLASVVAGTYEIK yielded an amyloid nucleation score of -1.27 ± 0.75.

Take FGFFTTYSELAVQVIQSAVT: the amyloid nucleation score is -0.032 ± 1.1.

On to RTVTNEGTCFNGWLCYAREG, for which the amyloid nucleation score is 10.15 ± 0.063.

Substance AKLEVQA showed an amyloid nucleation score of -0.978 ± 0.36.

RIRHCGQFYSMHGKRRIATH registered an amyloid nucleation score of 1.17 ± 0.34.

SSVEAELICLWKFCTTHVCT showed an amyloid nucleation score of 0.168 ± 0.56.

With SRSVEGLKLWATNSAGHVVA, the amyloid nucleation score is 0.958 ± 0.3.

Consider YMMSRASSVIIEREYK, for which the amyloid nucleation score was found to be 0.479 ± 0.74.

Regarding TEASLMWRYWDGDPWQWSFD, the amyloid nucleation score entry was “inactive”.

As for CYAPKYGRHWP, the amyloid nucleation score came to 0.708 ± 0.49.

IGVVILNHADSSLVTL came in with an amyloid nucleation score of 3.31 ± 0.091.

As to YFLLTFDILLCRAFGTAGPE, the amyloid nucleation score entry was “inactive”.

On to LTSSA, for which the amyloid nucleation score was -0.315 ± 0.49.

For the substance DMLVDYSIKDDRVYKVRLPM, the amyloid nucleation score was -1.61 ± 0.62.

Turning to SELLGLSIKAIYICCMSQME, the amyloid nucleation score is -0.9 ± 0.61.

In turn, NRVFVVND had an amyloid nucleation score of 1.4 ± 0.2.

The substance ACLGHSLAVVRTMTDSRKRL yielded an amyloid nucleation score of 0.367 ± 0.74.

CSFRAFLWCILGGGENFNSS showed an amyloid nucleation score of 2.91 ± 0.065.

In turn, IFNLSRAQTVINL gave an amyloid nucleation score of 5.34 ± 0.063.

The substance NYYINDADGRLLARWLYKLF displayed an amyloid nucleation score of -0.865 ± 0.25.

For the substance TPLEYF, the amyloid nucleation score is -0.19 ± 0.3.

As to SIGGMMVPLISLKYSY, the amyloid nucleation score is -0.784 ± 1.1.

For FYLGVALVHNKAWLFLWKDD, the amyloid nucleation score entry is “inactive”.

RINKGISGRGSD showed an amyloid nucleation score of 0.582 ± 0.57.

The substance RKWLISHPFLRRRGLSSLVF had an amyloid nucleation score of 0.99 ± 0.2.

On to CSEVQNLFNM, for which the amyloid nucleation score result is “inactive”.

Substance FGIFEQMMFLHNVCSDFTAS showed an amyloid nucleation score of -0.447 ± 1.1.

With KPCSGIRVCIDLCYPP, the amyloid nucleation score came out at 0.383 ± 0.74.

On to MNSSQGTDAKRMLYHRCSET, for which the amyloid nucleation score was -0.29 ± 0.56.

MMIPFVMYYRFDGYVKRHTG displayed an amyloid nucleation score of -0.512 ± 0.76.

YAVLSLKAWCLSG yielded an amyloid nucleation score of 4.61 ± 0.054.

YMTSD: the amyloid nucleation score is -0.464 ± 0.41.

Turning to GPFNKMYAYEIRQTGAFWRQ, the amyloid nucleation score was -0.098 ± 0.79.

On to DIYPRLLEDVFYPFVQPHLF, for which the amyloid nucleation score is -0.505 ± 1.1.

In the case of IFLKWLYKSFDYNI, the amyloid nucleation score was 0.973 ± 0.23.

On to SFGTFVSGTALLGSMFCTTG, for which the amyloid nucleation score is 0.285 ± 0.29.

For MSVMWLASLISFQLFMAAQL, the amyloid nucleation score worked out at 0.062 ± 0.79.

With WEGNEHWKCTENLVLAKTGH, the amyloid nucleation score result was “inactive”.

KESKLYLFLCFL: the amyloid nucleation score was determined as 7.832 ± 0.048.

With ILSRTKVFYNSSCETDVMWL, the amyloid nucleation score amounted to 4.17 ± 0.085.

NVRDSYVNNCMTKGPRLNGV: the amyloid nucleation score was -0.686 ± 0.34.

For the substance NKVAKLDFFFLKGPAFRNKA, the amyloid nucleation score result was “inactive”.

TYVYKYLFWSIPCMA registered an amyloid nucleation score of 0.715 ± 0.66.

In turn, DEKIYLVSG displayed an amyloid nucleation score of 0.472 ± 0.66.

Consider INFSTLYDLGESFFYQCPKM, for which the amyloid nucleation score result was “inactive”.

FFLGANGINALQNRSYIQPG showed an amyloid nucleation score of 0.007 ± 0.79.

For WVNSCVPGLARPNSLFFNRS, the amyloid nucleation score was -0.491 ± 0.56.

In turn, RKIMNGKV yielded an amyloid nucleation score of -0.414 ± 0.64.

MVSYKVLEYYVSLITTHLLF: the amyloid nucleation score is -0.36 ± 0.49.

Regarding ESLKINASSEQSRLVTRDTQ, the amyloid nucleation score is -0.191 ± 0.61.

In turn, DHADWNAYHISTEV displayed an amyloid nucleation score of 3.25 ± 0.05.

AINLSDKAARVPLFK had an amyloid nucleation score of -0.093 ± 0.34.

CGVFCLV came in with an amyloid nucleation score of 1.44 ± 0.41.

Substance FNVNRLAVLSYVSSWSGVIM gave an amyloid nucleation score of -0.772 ± 0.35.

The substance ACRAICVPKGVGYWFCVTSE registered an amyloid nucleation score of 0.54 ± 0.51.

In the case of RVCPLLYYGRDLLQLTMSSM, the amyloid nucleation score came to 0.314 ± 0.53.

YDCLSWRLKEERQATFGFRG: the amyloid nucleation score worked out at 0.505 ± 0.51.

Regarding SGRPHDCPHWRFFRSIKGLI, the amyloid nucleation score was -0.676 ± 0.48.

As to YGNSYRG, the amyloid nucleation score is -0.044 ± 0.55.

Turning to GTCLSFYEFNSWWIIKMFSK, the amyloid nucleation score turned out to be 0.657 ± 0.23.

In the case of NDSQTTLGLFDCRVREADHR, the amyloid nucleation score is -0.003 ± 1.1.

As to GDIMKCSRCSATLGEPMKRC, the amyloid nucleation score turned out to be 0.218 ± 1.1.

In the case of SGNVYFLQNRFSVAKQNYTL, the amyloid nucleation score is -0.448 ± 0.79.

DRICRVDIYDVRDQSYTFSG came in with an amyloid nucleation score of -0.279 ± 0.29.

Regarding HSICSSRNTVIFMSENFRNR, the amyloid nucleation score was found to be 4.99 ± 0.057.

On to MYNRG, for which the amyloid nucleation score was determined as 3.87 ± 0.11.

The substance VANNTGAKSYVFMARNAMCF came in with an amyloid nucleation score of -0.602 ± 0.49.

Take YDKSYFVFFNP: the amyloid nucleation score was 1.36 ± 0.27.

The substance SCRVLIGV returned an amyloid nucleation score of 0.878 ± 0.46.

The substance VLRRIVMMLSIS showed an amyloid nucleation score of -0.069 ± 0.32.

Substance VCQLQYILRNMLDKTRVSQD returned an amyloid nucleation score of 0.912 ± 0.26.

Consider MSVPFLWFTYHFSRPVLSVT, for which the amyloid nucleation score was determined as 0.389 ± 0.27.

The substance SCRIFFE yielded an amyloid nucleation score of -0.062 ± 0.65.

For RARIWALGYSLEEIRRGLED, the amyloid nucleation score was 3.19 ± 0.11.

As for LVLLKGYKRSNNGKQCYAGL, the amyloid nucleation score was 0.365 ± 0.66.

LSRLNFGIFDKVTAATGLMK displayed an amyloid nucleation score of -1.26 ± 0.78.

GMVVFVI returned an amyloid nucleation score of 0.21 ± 0.51.

Take GLDCR: the amyloid nucleation score is 0.024 ± 0.44.

As for YNVMDVMYYAQKWLLWWSKV, the amyloid nucleation score is -0.353 ± 0.41.

Take VFLVCYTYLWTFKSCTYFMN: the amyloid nucleation score is -1.88 ± 0.78.

MWLLWAKI: the amyloid nucleation score entry is “inactive”.

For the substance GVWSITNRFQEIVGNCLCVR, the amyloid nucleation score amounted to 0.576 ± 0.16.

VWGLLTIPCVSQIRCRCGFS returned an amyloid nucleation score of 0.749 ± 0.53.

EYMPP yielded an amyloid nucleation score of 0.924 ± 0.16.

For the substance SFRLQIRV, the amyloid nucleation score was -0.417 ± 0.23.

In turn, HLIAFLSAYFYYVMLARMYF gave an amyloid nucleation score of -1.87 ± 1.1.

In turn, IIMNVVHEDSLL gave an amyloid nucleation score of 0.019 ± 0.5.

In the case of FKSIDISAFSSSSHTGSYLG, the amyloid nucleation score amounted to 0.578 ± 0.81.

Substance PSSGPPNESAMSPITYSGEG came in with an amyloid nucleation score of -0.684 ± 1.1.

With TTRSIMQCDLGTNPFDNTCS, the amyloid nucleation score was 0.203 ± 0.41.

With LRAWDYRISNSHTRLDIDFT, the amyloid nucleation score result was “inactive”.

As to FEVDVA, the amyloid nucleation score result is “inactive”.

In turn, SLNDKFSLMGLICFWWWCLV displayed an amyloid nucleation score of -0.184 ± 0.79.

WTDAKALGGLSLLIRWSLEE displayed an amyloid nucleation score of 4.13 ± 0.087.

The substance QKHPGFKYHQNLRLVSLSKR registered an amyloid nucleation score of -0.837 ± 0.45.

SVKWKTRDEKS: the amyloid nucleation score is -0.711 ± 0.54.

For AILYDHSYSYWVSFRNVKCK, the amyloid nucleation score stood at 0.215 ± 0.65.

Consider DITTEVKGSLLVMLSGDNAG, for which the amyloid nucleation score was 0.807 ± 0.31.

With KRGMRRKGDFTERKVETLVG, the amyloid nucleation score was 2.39 ± 0.11.

For the substance ESGFGMSSNWKPERNFW, the amyloid nucleation score result was “inactive”.

As to DRAVRQFIFLVYGSSLDWDI, the amyloid nucleation score is 0.044 ± 0.79.

Regarding YYMRRVSGLDISGRMCCKSV, the amyloid nucleation score turned out to be 0.106 ± 0.42.

For the substance LCGAILIIVHYYG, the amyloid nucleation score stood at 5.446 ± 0.047.

Substance YSWVEPRSRRAVEHDS returned an amyloid nucleation score of 0.551 ± 0.3.

Regarding WLVMEATLAFIRYTRGSFSL, the amyloid nucleation score was -0.432 ± 1.1.

Regarding MMWLSARMQR, the amyloid nucleation score came out at 6.727 ± 0.049.

HNLWCDISLFGHIYRGRGTM came in with an amyloid nucleation score of 7.21 ± 0.08.

Regarding ANRWSMQGSERASSANWHRW, the amyloid nucleation score was 4.63 ± 0.054.

In turn, KLDWSNRLCSLNFECSCQLL registered an amyloid nucleation score of 3.78 ± 0.094.

Consider IDGKARDYMAGDARMNRF, for which the amyloid nucleation score was -1.45 ± 0.75.

For the substance RAWETNFRVTTLDCNNYSSS, the amyloid nucleation score result is “inactive”.

With NIFNRA, the amyloid nucleation score entry was “inactive”.

In turn, LRGSFNLVSYFTQLRSCDYF registered an amyloid nucleation score of -1.27 ± 0.78.

Consider KRLCYVSYWIYSYSRDGELK, for which the amyloid nucleation score is -1.23 ± 1.1.

As to SASFRGG, the amyloid nucleation score was -0.935 ± 0.48.

In turn, SGYGAAITVNFDITEHGGM showed an amyloid nucleation score of 5.06 ± 0.066.

SLDSIFCLTENISYQGIWCR gave an amyloid nucleation score of -1.12 ± 0.28.

Turning to IDSVIKTEARGQGVVARTRA, the amyloid nucleation score was 1.33 ± 0.28.

Substance VWGRMLRVGFGEV had an amyloid nucleation score of 0.066 ± 0.63.

On to WLLNLERDIFLLTLSGRMIK, for which the amyloid nucleation score was 0.449 ± 0.8.

Regarding SVYAGVLM, the amyloid nucleation score is -0.555 ± 0.63.

Substance LTYRVCHEVQGQRYCMAREH displayed an amyloid nucleation score of 0.174 ± 0.74.

On to ITCVVLPLSRWDVHFKCSCH, for which the amyloid nucleation score was 0.096 ± 0.31.

In turn, VYPDSIVGFEADVNGCVVVP yielded an amyloid nucleation score of 0.713 ± 0.38.

In turn, WYVLAWDPPLSFMCLGDV displayed an amyloid nucleation score of 0.666 ± 0.53.

For the substance ERVNKFLWGGFSERLRLMSQ, the amyloid nucleation score worked out at 0.51 ± 0.65.

Consider LAPLNSWKTY, for which the amyloid nucleation score is -0.045 ± 0.56.

Source of the values: the supplement of paper PMC12042874.
